According to patent US20230257716A1 (priority 2020, published 2023):

Experiments:
AT2 organoids = assay: AT2 organoid proliferation with niche factors and PORCUPINE inhibitor; details: EGF and NOGGIN together; WNT-3A and RSPONDIN-1 added exogenously
Description: Screening exogenous growth factors in organoid culture. Distal airway cells were isolated and plated as above with the following exceptions: ADMEM/F12 was used instead of organoid medium during elastase digestion of lung tissue, cells were serially diluted and filtered through a 40 micron cell strainer and counted with a hemocytometer. 1000 viable epithelial cells (by Trypan blue exclusion, size, and morphology) per μL ECM were plated per 5 μL Matrigel droplet per well. Base media consisted of organoid media lacking A83-01, EGF, NOGGIN, WNT3A or RSPO1. EGF (final 50 ng/ml, R&D), NOGGIN (final 100 ng/ml, R&D), WNT3A (final 100 ng/ml, R&D), RSPO1 (final 500 ng/ml, Peprotech) or the PORCUPINE inhibitor C59 (final 1μM, Biogems) were added singly or in combination to base media. Images were obtained ten days after primary plating with an inverted light microscope at 5X magnification. Each condition was plated in quadruplicate and organoid formation was quantified using the analyze particle (threshold=4902 pixels) plugin in ImageJ as previously described.

[1] = system: human distal lung organoids; assay: Screening exogenous growth factors in distal lung organoid culture; format: cell-based; details: single cell suspensions of distal lung, feeder-free; EGF and NOGGIN in combination
Description: (§1) Screening exogenous growth factors in organoid culture.

basal organoids = assay: Growth factor evaluation for basal organoids after sedimentation and clonogenic culture; format: cell-based, human; details: pure basal cell cultures; EGF and Noggin together
Description: as §1
Density sedimentation of basal cells. Organoid cultures within 2-3 weeks of primary plating were dissociated with 1 U/ml neutral protease (Worthington, Cat LS02100) and 100 KU of DNase I in organoid media. Basal organoids were then collected by gravity sedimentation and the supernatant was either aspirated or collected for downstream use. Basal organoids were then further fractionated on a custom Ficoll-Paque gradient (4 vol Ficoll-Paque to 1 vol PBS) and centrifuged at 300×g for 10 minutes at room temperature. The supernatant was aspirated and the organoid pellet was resuspended in 10 ml PBS in a 15 ml conical tube, collected by gravity sedimentation, and plated into ECM as described above.

B1: NOGGIN: recombinant human NOGGIN, BMP antagonist (protein, UniProt Q13253 28-232, looked up)
Noggin: QHYLHIRPAPSDNLPLVDLIEHPDPIFDPKEKDLNETLLRSLLGGHYDPGFMATSPPEDRPGGGGGAAGGAEDLAELDQLLRQRPSGAMPSEIKGLEFSEGLAQGKKQRLSKKLRRKLQMWLWSQTFCPVLYAWNDLGSRFWPRYVKVGSCFSKRSCSVPEGMVCKPSKSVHLTVLRWRCQRRGGQRCGWIPIQYPIISECKCSC
clonal AT2 organoid proliferation with exogenous growth factors (AT2 organoids): sufficient for clonal AT2 organoid proliferation
distal lung organoid growth with exogenous growth factors [1]: optimal
basal organoid growth with exogenous growth factors (basal organoids): sufficient for maximal growth

B2: WNT3A: exogenous WNT growth factor (R&D) (protein, UniProt P56704 19-352, looked up)
Protein Wnt-3a: SYPIWWSLAVGPQYSSLGSQPILCASIPGLVPKQLRFCRNYVEIMPSVAEGIKIGIQECQHQFRGRRWNCTTVHDSLAIFGPVLDKATRESAFVHAIASAGVAFAVTRSCAEGTAAICGCSSRHQGSPGKGWKWGGCSEDIEFGGMVSREFADARENRPDARSAMNRHNNEAGRQAIASHMHLKCKCHGLSGSCEVKTCWWSQPDFRAIGDFLKDKYDSASEMVVEKHRESRGWVETLRPRYTYFKVPTERDLVYYEASPNFCEPNPETGSFGTRDRTCNVSSHGIDGCDLLCCGRGHNARAERRREKCRCVFHWCCYVSCQECTRVYDVHTCK
clonal AT2 organoid proliferation with exogenous growth factors (AT2 organoids): did not enhance growth
distal lung organoid growth with exogenous growth factors [1]: without any additional growth-promoting effects
basal organoid growth with exogenous growth factors (basal organoids): without additive effects

B3: R-SPONDIN1: exogenous growth factor R-spondin 1 (Peprotech) (protein, UniProt Q2MKA7 21-263, looked up)
R-spondin-1: SRGIKGKRQRRISAEGSQACAKGCELCSEVNGCLKCSPKLFILLERNDIRQVGVCLPSCPPGYFDARNPDMNKCIKCKIEHCEACFSHNFCTKCKEGLYLHKGRCYPACPEGSSAANGTMECSSPAQCEMSEWSPWGPCSKKQQLCGFRRGSEERTRRVLHAPVGDHAACSDTKETRRCTVRRVPCPEGQKRRKGGQGRRENANRNLARKESKEAGAGSRRRKGQQQQQQQGTVGPLTSAGPA
clonal AT2 organoid proliferation with exogenous growth factors (AT2 organoids): did not enhance growth
distal lung organoid growth with exogenous growth factors [1]: without any additional growth-promoting effects
basal organoid growth with exogenous growth factors (basal organoids): without additive effects
